The target of test [1] is HLA-A3 on HLA typed EBV-LCLs (human). Put plainly: cell-based competition on acid-treated EBV-LCLs against 150 nM fluorescent reference peptide, flow cytometry. (In general: In flow cytometry, cells or beads pass a laser one at a time.)
For test [2], the target named is HLA-B60 on HLA typed EBV-LCLs (human). The test is described as above.
Test [3] shares this target. Put plainly: cell-based competition assay, flow cytometry.
The target in test [4] is recombinant HLA-A2.1 protein and b2-microglobulin (human). Put plainly: cell-free competition assay on recombinant HLA-A2.1, against HA-1^H peptide [..] as reference. As to conditions: remark: other sources report otherwise.
Test [5] addresses HLA-A2 on HLA typed EBV-LCLs (human). The test can be described thus: cell-based competition on acid-treated EBV-LCLs against 150 nM fluorescent reference peptide, flow cytometry. The following applies: remark: other sources report otherwise.
In test [6] the target is HLA-B60 on HLA typed EBV-LCLs (human). Described as above. This is another data set of the same source.
For test [7] the target is unchanged. The test can be described thus: cell-based competition assay, flow cytometry. This is another data set of the same source.

The IC50 is the concentration needed to halve the response being measured. Read a low IC50 as greater potency in that assay.

B1: decameric HA-1^H peptide … (peptide)
peptide: VLHDDLLEAR
modifications: not checked
As to B1, the IC50 in test [1] was determined as 15.6 µM.

B2: decameric HA-1^H peptide … (peptide)
peptide: KECVLHDDLL
The molecule B2 showed a concentration for half-maximal inhibition (IC50) in test [2] of 1 µM.

B3: decameric HA-1^R peptide … (peptide)
peptide: KECVLRDDLL
As for B3, the figures for the half-inhibitory concentration (IC50) in test [2] and in test [3] were 1.6 µM and 1.6 to 5.3 µM, respectively.

B4: HA-1^R peptide … (peptide)
peptide: VLRDDLLEA
Regarding B4, the fold lower binding affinity than the HA-1^H peptide in test [4] was 10 fold.

B5: HLA-B60 binder-positive control peptide … (peptide)
peptide: KESTLHLVL
Consider B5, for which the IC50 in test [2] stood at 1.1 µM.

B6: HA-1^H peptide … (peptide)
peptide: VLHDDLLEA
For the molecule B6, in test [5], the IC50 amounted to 6.4 µM.

B7: nonameric HA-1^H peptide … (peptide)
peptide: KECVLHDDL
modifications: not checked
In the case of B7, the concentration for half-maximal inhibition (IC50) in test [6] is 5.3 µM; in test [7], 1.6 to 5.3 µM.

These data come from patent US20080206268A1.
